Laboratory results taken from patent US20050032180A1, “Method for the production of (r)-and (s)-8-chloro-6-hydroxy-octanic acid alkyl esters by enzymatic reduction” (priority 2001, published 2005).

Assay: analytical assay of enzyme activity with compounds of the formula I as substrate
Assay type: biochemical
Protocol: The configuration of the resulting 8-chloro-6-hydroxyoctanoic acid alkyl esters is determined by the enzyme employed. Thus, reduction of 8-chloro-6-oxooctanoic acid alkyl esters using alcohol dehydrogenase from Thermoanaeorubium brokii results in enantiopure (R)-8-chloro-6-hydroxyoctanoic acid alkyl esters. In the case of reduction using Lactobacillus brevis alcohol dehydrogenase, there is enantioselective formation of (S)-8-chloro-6-hydroxyoctanoic acid alkyl esters (ee>65%).

B1: LKADH: Lactobacillus kefir ADH, commercially available (protein, UniProt Q6WVP7 1-252, looked up)
NADP-dependent (R)-specific …: MTDRLKGKVAIVTGGTLGIGLAIADKFVEEGAKVVITGRHADVGEKAAKSIGGTDVIRFVQHDASDEAGWTKLFDTTEEAFGPVTTVVNNAGIAVSKSVEDTTTEEWRKLLSVNLDGVFFGTRLGIQRMKNKGLGASIINMSSIEGFVGDPTLGAYNASKGAVRIMSKSAALDCALKDYDVRVNTVHPGYIKTPLVDDLEGAEEMMSQRTKTPMGHIGEPNDIAWICVYLASDESKFATGAEFVVDGGYTAQ
Standard acetophenone, cofactor NADP(H), 50 mM Kpi, 0.1 mM MgCl2, pH 7.0, iso-propanol 200 mM
  Activity: 10%

B2: TBADH: Thermoanaerobium brokii ADH, commercially available (protein, UniProt P14941 1-352, looked up)
NADP-dependent isopropanol …: MKGFAMLSIGKVGWIEKEKPAPGPFDAIVRPLAVAPCTSDIHTVFEGAIGERHNMILGHEAVGEVVEVGSEVKDFKPGDRVVVPAITPDWRTSEVQRGYHQHSGGMLAGWKFSNVKDGVFGEFFHVNDADMNLAHLPKEIPLEAAVMIPDMMTTGFHGAELADIELGATVAVLGIGPVGLMAVAGAKLRGAGRIIAVGSRPVCVDAAKYYGATDIVNYKDGPIESQIMNLTEGKGVDAAIIAGGNADIMATAVKIVKPGGTIANVNYFGEGEVLPVPRLEWGCGMAHKTIKGGLCPGGRLRMERLIDLVFYKRVDPSKLVTHVFRGFDNIEKAFMLMKDKPKDLIKPVVILA
Standard 2-butanone, cofactor NADP(H), 50 mM Tris, 1 mM DTT, pH 7.8, HCO2Na, FDH, 37° C.
  Activity: 6%

B3: Y-ADH: yeast alcohol dehydrogenase, commercially available (protein, UniProt P00330 2-348, looked up)
Alcohol dehydrogenase 1: SIPETQKGVIFYESHGKLEYKDIPVPKPKANELLINVKYSGVCHTDLHAWHGDWPLPVKLPLVGGHEGAGVVVGMGENVKGWKIGDYAGIKWLNGSCMACEYCELGNESNCPHADLSGYTHDGSFQQYATADAVQAAHIPQGTDLAQVAPILCAGITVYKALKSANLMAGHWVAISGAAGGLGSLAVQYAKAMGYRVLGIDGGEGKEELFRSIGGEVFIDFTKEKDIVGAVLKATDGGAHGVINVSVSEAAIEASTRYVRANGTTVLVGMPAGAKCCSDVFNQVVKSISIVGSYVGNRADTREALDFFARGLVKSPIKVVGLSTLPEIYEKMEKGQIVGRYVVDTSK
Standard 2-butanone, cofactor NAD(H), 100 mM TEA, pH 7.0
  Activity: 20%
